Measurements: the supplement of paper PMC7877785
± gives the uncertainty stated by the source.

Experiment: self-splicing fitness, log relative to wild type (ln ratio); higher = more splicing; Tetrahymena group I intron in knt gene, E. coli kanamycin selection, DiMSum; sequences stand for … in CUCUCU…GGAGGGAAAAGUUAUCAGGCAUGCACCUGGUAGCUAGUCUUUAAACCAAUAGAUUGCAUCGGUUUAAAAGGCAAGACCGUCAAAUUGCGGGAAAGGGGUCAACAGCCGUUCAGUACCAAGUCUCAGGGGAAACUUUGAGAUGGCCUUGCAAAGGGUAUGGUAAUAAGCUGACGGACAUGGUCCUAACCACGCAGCCAAGUCCUAAGUCAACAGAUCUUCUGUUGAUAUGGAUGCAGUUCACAGACUAAAUGUCGGUCGGGGAAGAUGUAUUCUUCUCAUAAGAUAUAGUCGGACCUCUCCUUAAUGGGAGCUAGCGGAUGAAGUGAUGCAACACUGGAGCCGCUGGGAACUAAUUUGUAUGCGAAAGUAUAUUGAUUAGUUUUGGAGUACUCGUGGUCG
Method in brief: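 Library with all eight P1ex-region intron nucleotides randomised, intron inside the knt kanamycin-resistance gene on pET-22b(+), in E. coli BL21(DE3). Cells grew overnight at 37°C or 30°C on LB agar with or without 25 μg/mL kanamycin (plus 100 μg/mL carbenicillin, 50 μM IPTG, 0.2% rhamnose), in six replicate transformations. Pooled colonies were amplicon-sequenced on Illumina HiSeq 2500. DiMSum fitness is the error-weighted combination of wild-type-normalised replicate fold changes, kanamycin versus none.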

Row | Sequence | self-splicing fitness (ln) (30 °C) | self-splicing fitness (ln) (37 °C)
1 | CGAUAGCAAUAUUACGAAAC | -1.44 ± 0.32 | –
2 | CGAUAGCAAUAUUACGACAC | -3.23 ± 0.49 | –
3 | CGAUAGCAAUAUUACGACAU | -3.167 ± 0.021 | -1.95 ± 0.035
4 | CGAUAGCAAUAUUACGACCG | -1.44 ± 0.21 | 0.156 ± 0.24
5 | CGAUAGCAAUAUUACGCAAG | -1.97 ± 0.13 | -0.614 ± 0.11
6 | CGAUAGCAAUAUUACGCACA | -0.708 ± 0.088 | -0.0385 ± 0.12
7 | CGAUAGCAAUAUUACGCCAG | -1.35 ± 0.1 | -0.84 ± 0.15
8 | CGAUAGCAAUAUUACGCCCU | -0.983 ± 0.2 | 0.695 ± 0.25
9 | CGAUAGCAAUAUUACGCUGG | -0.585 ± 0.19 | -1.43 ± 0.23
10 | CGAUAGCAAUAUUACGCUUA | -2.23 ± 0.12 | -1.19 ± 0.078
11 | CGAUAGCAAUAUUACGGAAU | -3.23 ± 0.16 | -2.01 ± 0.2
12 | CGAUAGCAAUAUUACGGACU | -1.28 ± 0.095 | -0.496 ± 0.11
13 | CGAUAGCAAUAUUACGGAUU | -2.89 ± 0.11 | -2.61 ± 0.2
14 | CGAUAGCAAUAUUACGGCGC | -1.21 ± 0.15 | -0.875 ± 0.26
15 | CGAUAGCAAUAUUACGGCUA | -3.24 ± 0.49 | -1.08 ± 0.17
16 | CGAUAGCAAUAUUACGGCUG | -0.568 ± 0.1 | 0.209 ± 0.15
17 | CGAUAGCAAUAUUACGGCUU | -2.67 ± 0.17 | -1.51 ± 0.19
18 | CGAUAGCAAUAUUACGUCAC | -3.44 ± 0.26 | -2.34 ± 0.25
19 | CGAUAGCAAUAUUACGUCGU | -4.24 ± 0.2 | -3.05 ± 0.21
20 | CGAUAGCAAUAUUACGUCUU | -1.49 ± 0.13 | -0.12 ± 0.13
21 | CGAUAGCAAUAUUACGUUCU | -1.15 ± 0.07 | -0.384 ± 0.094
22 | CGAUAGCAAUAUUACGUUUU | -3.78 ± 0.19 | -2.76 ± 0.16
23 | CGCAAGCAAUAUUACGAAUC | -4.8 ± 0.38 | -1.29 ± 0.18
24 | CGCAAGCAAUAUUACGAGCG | -3 ± 0.38 | -2.52 ± 0.44
25 | CGCAAGCAAUAUUACGAGGG | -3.85 ± 0.23 | -2.9 ± 0.32

Row | Sequence | self-splicing fitness (ln) (30 °C) | self-splicing fitness (ln) (37 °C)
26 | CGCAAGCAAUAUUACGAUUU | -2.45 ± 0.16 | -2.33 ± 0.18
27 | CGCAAGCAAUAUUACGCCGU | -2.67 ± 0.25 | -0.883 ± 0.14
28 | CGCAAGCAAUAUUACGCCUA | -0.46 ± 0.094 | -0.653 ± 0.1
29 | CGCAAGCAAUAUUACGCUAG | -2.46 ± 0.16 | -2.89 ± 0.2
30 | CGCAAGCAAUAUUACGGAAA | -2.31 ± 0.33 | -2.5 ± 0.2
31 | CGCAAGCAAUAUUACGGAAG | -1.03 ± 0.097 | -1.44 ± 0.1
32 | CGCAAGCAAUAUUACGGCAC | -2.32 ± 0.21 | -1.29 ± 0.3
33 | CGCAAGCAAUAUUACGGCAU | -1.63 ± 0.071 | -0.555 ± 0.079
34 | CGCAAGCAAUAUUACGGCGU | -3.52 ± 0.15 | -2.2 ± 0.18
35 | CGCAAGCAAUAUUACGGCUG | -1.33 ± 0.065 | 0.0892 ± 0.085
36 | CGCAAGCAAUAUUACGGGAG | -2.73 ± 0.095 | -2.19 ± 0.12
37 | CGCAAGCAAUAUUACGGUCA | -0.699 ± 0.067 | 0.0685 ± 0.079
38 | CGCAAGCAAUAUUACGUACA | -2.03 ± 0.11 | -0.56 ± 0.085
39 | CGCAAGCAAUAUUACGUAGA | -2.6 ± 0.11 | -1.73 ± 0.13
40 | CGCAAGCAAUAUUACGUGCG | -2.81 ± 0.26 | -2.23 ± 0.2
41 | CGCAAGCAAUAUUACGUGGC | -3.9 ± 0.2 | -1.93 ± 0.17
42 | CGCAAGCAAUAUUACGUGGG | -4.69 ± 0.25 | -3.16 ± 0.17
43 | CGCCAGCAAUAUUACGAAAC | -4.57 ± 0.36 | -1.78 ± 0.2
44 | CGCCAGCAAUAUUACGAAGG | -1.36 ± 0.11 | -1.9 ± 0.16
45 | CGCCAGCAAUAUUACGAAGU | -3.65 ± 0.16 | -2.13 ± 0.11
46 | CGCCAGCAAUAUUACGAGGA | -3.07 ± 0.19 | -2.41 ± 0.22
47 | CGCCAGCAAUAUUACGAGUA | -2.79 ± 0.18 | -1.52 ± 0.18
48 | CGCCAGCAAUAUUACGAUAA | -3.9 ± 0.46 | -2.78 ± 0.35
49 | CGCCAGCAAUAUUACGAUGG | -3.09 ± 0.15 | -2.72 ± 0.23
50 | CGCCAGCAAUAUUACGAUUC | -4.81 ± 0.46 | -3.22 ± 0.35

Row | Sequence | self-splicing fitness (ln) (30 °C) | self-splicing fitness (ln) (37 °C)
51 | CGCCAGCAAUAUUACGAUUG | -0.454 ± 0.06 | 0.047 ± 0.083
52 | CGCCAGCAAUAUUACGCACU | -2.23 ± 0.14 | -1.47 ± 0.14
53 | CGCCAGCAAUAUUACGCCGG | -3.13 ± 0.2 | -3.21 ± 0.35
54 | CGCCAGCAAUAUUACGCGGU | -3.04 ± 0.13 | -3.3 ± 0.22
55 | CGCCAGCAAUAUUACGCGUA | -2.72 ± 0.18 | -2.31 ± 0.18
56 | CGCCAGCAAUAUUACGCGUU | -2.03 ± 0.12 | -2.31 ± 0.19
57 | CGCCAGCAAUAUUACGCUAA | -2.34 ± 0.15 | -1.29 ± 0.14
58 | CGCCAGCAAUAUUACGCUGA | -3.51 ± 0.24 | -2.24 ± 0.28
59 | CGCCAGCAAUAUUACGGCCC | -2.2 ± 0.12 | -0.207 ± 0.25
60 | CGCCAGCAAUAUUACGGGUA | -0.998 ± 0.064 | -0.377 ± 0.069
61 | CGCCAGCAAUAUUACGGGUC | -2.81 ± 0.14 | -2.6 ± 0.17
62 | CGCCAGCAAUAUUACGGGUG | -4.13 ± 0.14 | -2.58 ± 0.12
63 | CGCCAGCAAUAUUACGGUCA | -0.14 ± 0.066 | 0.542 ± 0.092
64 | CGCCAGCAAUAUUACGUAAC | -3.91 ± 0.24 | -2.96 ± 0.28
65 | CGCCAGCAAUAUUACGUAGU | -2.67 ± 0.1 | -1.18 ± 0.11
66 | CGCCAGCAAUAUUACGUCCG | -0.462 ± 0.1 | -0.546 ± 0.12
67 | CGCCAGCAAUAUUACGUUAA | -3.31 ± 0.22 | -2.57 ± 0.17
68 | CGCCAGCAAUAUUACGUUAU | -3.32 ± 0.16 | -2.22 ± 0.18
69 | CGCCAGCAAUAUUACGUUGC | -3.95 ± 0.29 | -2.45 ± 0.22
70 | CGCCAGCAAUAUUACGUUUC | -3.41 ± 0.12 | -2.42 ± 0.24
71 | CGCGAGCAAUAUUACGAAAG | -2.75 ± 0.26 | -1.65 ± 0.23
72 | CGCGAGCAAUAUUACGAACA | -3.27 ± 0.45 | -1.19 ± 0.23
73 | CGCGAGCAAUAUUACGACAC | -3.42 ± 0.49 | -1.36 ± 0.41
74 | CGCGAGCAAUAUUACGAUAC | -3.81 ± 0.3 | -2.56 ± 0.28
75 | CGCGAGCAAUAUUACGAUGG | -1.66 ± 0.12 | -1.2 ± 0.14
